To fix the notation:
T1: A*01/LTD peptide on A*01/LTD (human)
T1 peptide: LTDEMIAQY

T2: A*02/YLQ peptide on A*02/YLQ (human)
T2 peptide: YLQPRTFLL

T3: A*24/QYI peptide on A*24/QYI (human)
T3 peptide: QYIKWPWYI

B1: 2997 (TCR)
alpha TRAV9-2 TRAJ9 CDR3: CALSALNTGGFKTIF
beta TRBV20-1 TRBJ1-1 CDR3: CSASGLTRDSPLNTEAFF
B2: 1650 (TCR)
alpha TRAV13-1 TRAJ9 CDR3: CAAPPGGFKTIF
beta TRBV28 TRBJ2-1 CDR3: CASTTSTGAYNEQFF
B3: 1361 (TCR)
alpha TRAV12-1 TRAJ4 CDR3: CVVTGFSGGYNKLIF
beta TRBV14 TRBJ1-4 CDR3: CASSLVRGGFEKLFF
B4: 1690 (TCR)
alpha TRAV8-4 TRAJ10 CDR3: CAVSDLRVLTGGGNKLTF
beta TRBV7-9 TRBJ2-1 CDR3: CASSLALAGRNYNEQFF
B5: 41 (TCR)
alpha TRAV12-2 TRAJ53 CDR3: CAVGRGGGSNYKLTF
beta TRBV29-1 TRBJ2-7 CDR3: CSAHGGWPYEQYF
B6: 475 (TCR)
alpha TRAV3 TRAJ40 CDR3: CAVSGPTSGTYKYIF
beta TRBV5-5 TRBJ1-5 CDR3: CASSLWDGGNQPQHF
B7: 99 (TCR)
alpha TRAV5 TRAJ24 CDR3: CAERRGKLQF
beta TRBV15 TRBJ2-5 CDR3: CATSRGPGGSKAGETQYF
B8: 9825 (TCR)
alpha TRAV12-1 TRAJ43 CDR3: CVVNELDDMRF
beta TRBV5-1 TRBJ2-2 CDR3: CASAGPNTGELFF
B9: 7411 (TCR)
alpha TRAV12-1 TRAJ45 CDR3: CVVNRADGLTF
beta TRBV12-3 TRBJ2-2 CDR3: CASTDGNTGELFF
B10: 6688 (TCR)
alpha TRAV12-1 TRAJ36 CDR3: CVVNKEDNLFF
beta TRBV9 TRBJ2-2 CDR3: CASSGGIETSGNTGELFF
B11: 9973 (TCR)
alpha TRAV39 TRAJ54 CDR3: CAVDSSFQGAQKLVF
beta TRBV6-2 TRBJ2-7 CDR3: CASSLPDSYEQYF
B12: 6579 (TCR)
alpha TRAV12-1 TRAJ10 CDR3: CVVNSPEGGGNKLTF
beta TRBV7-2 TRBJ1-1 CDR3: CASSSLNSLEAFF
B13: 3695 (TCR)
alpha TRAV12-1 TRAJ20 CDR3: CVVNWYDYKLSF
beta TRBV30 TRBJ2-2 CDR3: CAWINDQNTGELFF
B14: 5766 (TCR)
alpha TRAV12-1 TRAJ43 CDR3: CVVNMYDDMRF
beta TRBV5-1 TRBJ2-2 CDR3: CASIDSNTGELFF
B15: 10749 (TCR)
alpha TRAV12-1 TRAJ20 CDR3: CVVNKEDKLSF
beta TRBV20-1 TRBJ2-2 CDR3: CSARDLLAANTGELFF
B16: 84 (TCR)
alpha TRAV8-3 TRAJ24 CDR3: CAVGLTDSWGKLQF
beta TRBV5-8 TRBJ2-1 CDR3: CASSLAIRGIIDNEQFF
B17: 96 (TCR)
alpha TRAV38-1 TRAJ57 CDR3: CAFSPGGSEKLVF
beta TRBV5-1 TRBJ2-7 CDR3: CASSLGRFLRGDWDYEQYF

The target in one assay is T1, A*01/LTD peptide on A*01/LTD. Nature of the assay: activation reporter or marker.
In the case of B1, the binding result is on record as “recognises”.

Consider B2, for which the binding result is “recognises”.

For the molecule B3, the binding result is recorded as “recognises”.

For B4, the binding result was “no recognition”.

For B5, the binding result was “recognises”.

As to B6, the binding result is reported as “recognises”.

On to B7, for which the binding result is reported as “recognises”.

Another assay concerns the target T2, A*02/YLQ peptide on A*02/YLQ. The assay is described as follows: activation reporter or marker.
Take B8: the binding result is listed as “recognises”.

As for B9, the binding result is given as “recognises”.

As to B10, the binding result is on record as “recognises”.

B11: the binding result is given as “no recognition”.

For the molecule B12, the binding result is given as “recognises”.

As to B13, the binding result is listed as “recognises”.

With B14, the binding result was “recognises”.

Regarding B15, the binding result was “recognises”.

A further assay has as its target T3, A*24/QYI peptide on A*24/QYI. Nature of the assay: activation reporter or marker.
Regarding B16, the binding result is “no recognition”.

On to B17, for which the binding result is given as “no recognition”.
